According to patent publication US20230050380A1 (CHIOME BIOSCIENCE, published 2023):

T1: full-length hCDCP1 with N-terminal c-Myc tag (expression vector GS01), on Ba/F3-hCDCP1 cells or … (human, UniProt Q9H5V8 30-836)
T1 construct: also called human CDCP1; hCDCP1 forced expression cells
T1 sequence: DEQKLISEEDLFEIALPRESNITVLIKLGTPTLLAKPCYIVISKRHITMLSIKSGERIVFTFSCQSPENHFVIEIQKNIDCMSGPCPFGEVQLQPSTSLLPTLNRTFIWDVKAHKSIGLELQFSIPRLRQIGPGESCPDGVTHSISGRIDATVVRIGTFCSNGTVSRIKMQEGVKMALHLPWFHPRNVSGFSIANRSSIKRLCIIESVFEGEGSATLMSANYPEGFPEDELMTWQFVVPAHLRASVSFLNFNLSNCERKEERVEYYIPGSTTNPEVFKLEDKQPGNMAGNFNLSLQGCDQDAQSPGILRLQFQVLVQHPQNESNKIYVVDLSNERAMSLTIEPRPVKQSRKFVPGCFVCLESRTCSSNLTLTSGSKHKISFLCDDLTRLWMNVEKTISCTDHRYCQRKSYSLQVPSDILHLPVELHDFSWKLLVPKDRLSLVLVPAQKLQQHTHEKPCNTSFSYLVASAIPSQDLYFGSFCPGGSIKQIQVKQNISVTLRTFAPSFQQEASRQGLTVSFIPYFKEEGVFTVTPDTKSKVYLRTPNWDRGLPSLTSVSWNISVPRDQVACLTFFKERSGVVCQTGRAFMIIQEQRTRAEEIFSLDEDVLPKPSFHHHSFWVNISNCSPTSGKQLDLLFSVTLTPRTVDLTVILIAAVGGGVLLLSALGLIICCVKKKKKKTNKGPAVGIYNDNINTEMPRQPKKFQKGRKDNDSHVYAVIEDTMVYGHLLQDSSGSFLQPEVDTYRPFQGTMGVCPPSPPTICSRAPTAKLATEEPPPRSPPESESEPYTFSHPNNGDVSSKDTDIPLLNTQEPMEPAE

B1: h14A063VH2/VL1 (antibody, human IgG1, kappa)
heavy: not shown
light: EIVLTQSPATLSLSPGERATLSCRASESVDSYGNSFMHWYQQKPGQAPRLLIFLASNLESGVPARFSGSGSRTDFTLTISSLEPEDFAVYYCQQNNEDPWTFGGGTKVEIKRTVAAPSVFIFPPSDEQLKSGTASVVCLLNNFYPREAKVQWKVDNALQSGNSQESVTEQDSKDSTYSLSSTLTLSKADYEKHKVYACEVTHQGLSSPVTKSFNRGEC
notes: humanized antibody, human IgG1/kappa constant regions
B2: h14A063VH2/VL2 (antibody, human IgG1, kappa)
heavy: not shown
light: EIVLTQSPATLSLSPGERATLSCRASESVDSYGNSFMHWYQQKPGQAPRLLIFLASNLESGVPARFSGSGSGTDFTLTISSLEPEDFAVYYCQQNNEDPWTFGGGTKVEIKRTVAAPSVFIFPPSDEQLKSGTASVVCLLNNFYPREAKVQWKVDNALQSGNSQESVTEQDSKDSTYSLSSTLTLSKADYEKHKVYACEVTHQGLSSPVTKSFNRGEC
notes: as for B1
B3: h14A063VH4/VL1 (antibody, human IgG1, kappa, V domains shown)
VH: EVQLVESGGGLVQPGGSLRLSCAASGFTFSSYTMSWVRQAPEKRLEWVAYISSGGGSTYYPDTVKGRFTISRDNAKNSLYLQMNSLRAEDTAVYYCARYDLGFAYWGQGTLVTVSS
VL: EIVLTQSPATLSLSPGERATLSCRASESVDSYGNSFMHWYQQKPGQAPRLLIFLASNLESGVPARFSGSGSRTDFTLTISSLEPEDFAVYYCQQNNEDPWTFGGGTKVEIKR
notes: humanized antibody, human IgG1/kappa constant regions; also called h14A063VH4/VL1-biotin (biotinylated form)
B4: h14A063VH4/VL2 (antibody, human IgG1, kappa, V domains shown)
VH: EVQLVESGGGLVQPGGSLRLSCAASGFTFSSYTMSWVRQAPEKRLEWVAYISSGGGSTYYPDTVKGRFTISRDNAKNSLYLQMNSLRAEDTAVYYCARYDLGFAYWGQGTLVTVSS
VL: EIVLTQSPATLSLSPGERATLSCRASESVDSYGNSFMHWYQQKPGQAPRLLIFLASNLESGVPARFSGSGSGTDFTLTISSLEPEDFAVYYCQQNNEDPWTFGGGTKVEIKR
notes: humanized antibody, human IgG1/kappa constant regions; also called h14A063VH4/VL2-biotin (biotinylated form)
B5: h14A063VH3/VL2 (antibody, human IgG1, kappa)
heavy: not shown
light: EIVLTQSPATLSLSPGERATLSCRASESVDSYGNSFMHWYQQKPGQAPRLLIFLASNLESGVPARFSGSGSGTDFTLTISSLEPEDFAVYYCQQNNEDPWTFGGGTKVEIKRTVAAPSVFIFPPSDEQLKSGTASVVCLLNNFYPREAKVQWKVDNALQSGNSQESVTEQDSKDSTYSLSSTLTLSKADYEKHKVYACEVTHQGLSSPVTKSFNRGEC
notes: as for B1
B6: h14A063VH3/VL1 (antibody, human IgG1, kappa)
heavy: not shown
light: EIVLTQSPATLSLSPGERATLSCRASESVDSYGNSFMHWYQQKPGQAPRLLIFLASNLESGVPARFSGSGSRTDFTLTISSLEPEDFAVYYCQQNNEDPWTFGGGTKVEIKRTVAAPSVFIFPPSDEQLKSGTASVVCLLNNFYPREAKVQWKVDNALQSGNSQESVTEQDSKDSTYSLSSTLTLSKADYEKHKVYACEVTHQGLSSPVTKSFNRGEC
notes: as for B1
B7: h14A043VH2/VL2 (antibody, human IgG1, kappa, V domains shown)
VH: QVQLVQSGAEVKKPGSSVKVSCKASGFNIKDYYMNWVRQAPGQGLEWIGWIDPENANTIYDPKFQGRATITADESTSTAYMELSSLRSEDTAVYYCYGSSYRFTYWGQGTLVTVSS
VL: EIVLTQSPATLSLSPGERATLSCSASSSVSYLYWYQQKPGQAPRPWIYLTSNLASGVPARFSGSGSGTDYTLTISSLEPEDFAVYYCQQWSSNPFTFGGGTKVEIKR
notes: as for B1
B8: h14A043VH2/VL3 (antibody, human IgG1, kappa)
heavy: not shown
light: EIVLIQSPATLSLSPGERATLSCSASSSVSYLYWYQQKPGQAPRPWIYLTSNLASGVPARFSGSGSGTDFTLTISSLEPEDFAVYYCQQWSSNPFTFGGGTKVEIKRTVAAPSVFIFPPSDEQLKSGTASVVCLLNNFYPREAKVQWKVDNALQSGNSQESVTEQDSKDSTYSLSSTLTLSKADYEKHKVYACEVTHQGLSSPVTKSFNRGEC
notes: as for B1

Molecular target: T1, full-length hCDCP1 with N-terminal …
Assay: flow cytometry on Ba/F3-hCDCP1 cells

Binding result, binds:
B1, B2, B3, B4, B5, B6, B7, B8
